Laboratory results published in US20260125465A1 (BROAD INSTITUTE, published 2026).
One block for each binder: values may come before it.

Molecular target: T1, soluble MSLN (Glu2-6-Gly580, Acro Bio Systems, MSN-H82E9-25 ug) (UniProt Q13421 296-580)
T1 construct: range 296-580; Detected with an anti-His secondary antibody in the CAR-T staining, so it carries a His tag; also called soluble mesothelin
Assay: biolayer interferometry (BLI) with soluble MSLN
Protocol: Experiments were undertaken to characterize the ability of the anti-MSLN VHH antibodies to bind MSLN. 6×His tagged (SEQ ID NO: 93) VHH antibodies were produced by Genscript in a mammalian cell line and purified. The purified VHH antibodies were tested using a flow cytometry-based assay to see how well they bound mesothelin expressed on cells (FIG. 9A). […] Also, biolayer interferometry (BLI) was used to accurately assess the binding affinity (Kd) of the anti-MSLN VHH antibodies (Table 5). BLI was conducted with soluble MSLN (Glu2-6-Gly580, Acro Bio Systems, MSN-H82E9-25 ug). […] After exposure to the media containing the soluble MSLN, an anti-His secondary antibody was used to detect CAR-T cells binding the MSLN. T cells expressing CARs containing the anti-MSLN VHH antibodies or SS1 as antigen binding domains bound the soluble MSLN.

T1 sequence (Q13421 other isoform, or with tags, fused parts or gaps limits assumed): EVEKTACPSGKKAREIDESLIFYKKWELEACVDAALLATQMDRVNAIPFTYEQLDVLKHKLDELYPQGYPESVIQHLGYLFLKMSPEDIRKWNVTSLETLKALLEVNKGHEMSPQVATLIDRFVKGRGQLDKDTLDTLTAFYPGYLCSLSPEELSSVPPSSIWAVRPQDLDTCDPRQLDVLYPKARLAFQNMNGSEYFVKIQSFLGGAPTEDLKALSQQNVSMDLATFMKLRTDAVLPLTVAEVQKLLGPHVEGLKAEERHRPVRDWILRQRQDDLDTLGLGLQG

B1: Ab_119707 VHH antibody, 6×His tagged, purified (VHH)
VHH: EVQLVESGGGSVQAGETLRLSCTASGFTFDDSDMGWYRQAPGDECELVSTISSDGSTNYADSVKGRFTISQDNAKNTVYLQMTSLKPEDTAIYSCRTMASRIGCWGQGTLVTVSH
notes: Produced by Genscript in a mammalian cell line and purified
Kd: 5.95 nM

B4: Ab_119706 VHH antibody, 6×His tagged, purified (VHH)
VHH: QLQLVESGGGLVQPGGSLRLSCAASGFTLDYYAIGWFRQAPGKEREGVSYISSSGGSTNYADSVKGRFTISRDNAKNTVYLQMNSLKPEDTGVYSCAAAGGYGNSSRYWGQGTSVTVSH
notes: as for B1
Kd: 11.5 nM

Now those with a lower Kd, led by results:

Kd: 5.32 nM
B5: Ab_119702 VHH antibody, 6×His tagged, purified (VHH)
VHH: DVQLVESGGGLVQAGGSLRLSCAASGFPYFSCCMSWHRQAPGKDRELVSSISSDGSTHYADSVRGRFTISKGNARNTLYLQMNSLKPEDTAVYFCAASPRQLGPYYAMDYWGQGTSVTVSH
notes: as for B1

Kd: 4.49 nM
B2: Ab_119704 VHH antibody, 6×His tagged, purified (VHH)
VHH: QLQLVESGGGLVQPGGSLRLSCAASGFTLDNYAIGWFRQAPGKEREGVSSISSSGGSTNYADSVKGRFTVSRDNAKHTVYLQMNSLKPEDTAVYYCAGVGDYGRRAMGQGTSVTVSH
notes: as for B1

Kd: 3.69 nM
B3: Ab_113415 VHH antibody, 6×His tagged, purified (VHH)
VHH: QVQLVESGGGLVQPGGSLRLSCAASGSMFSINAVAWYRQAPGEQREPVAAMTSGGSTIYADSVKGRFTISRDNAKNTVYLQMSSLKPEDTAVYYCNGGWSLAMDYWGQGTSVTVSH
notes: Produced by Genscript in a mammalian cell line and purified; The tag is written after the VHH only by convention
